According to US20170022287A1 (Chugai, published 2017):
Positions count from the first letter of the chain named.

Key:
mouse CD137 on T cells = mouse CD137 on T cells (mouse, UniProt P20334 24-256); experiment: cell-based or functional assay
[1] = target: full-length human CD137-Fc fusion protein (human); experiment: ELISA, coated CD137-Fc protein 2 µg/mL, antibody 10 or 5 µg/mL; absorbance 620 nm divided by that of the uncoated well
Procedure: (§1) Fragmented human CD137-Fc fusion proteins were diluted to 2 μg/mL in an aqueous sodium carbonate solution adjusted to pH9.6. Fifty μL of a diluted fragmented human CD137-Fc fusion protein was added individually to each well of a Nunc MaxiSorp flat-bottom 96 well plate (Nunc). This was allowed to stand at 4° C. overnight or longer, and then the plate was allowed to stand at room temperature for one hour so that the plate has the same temperature as the room temperature. The solution containing the fragmented human CD137-Fc fusion protein was removed by tilting, and each well was washed three times with 300 μL of Wash buffer (TBS containing 0.1% Tween20, TaKaRa). Next, 150 μL of blocking buffer (TBS containing 2% BSA) was added to each well, and this was allowed to stand for one hour or more. The blocking buffer was removed by tilting, and each well was washed three times with Wash Buffer in a similar manner to an earlier step. Then, 50 μL of an antibody solution prepared in advance by dilution with TBS to 10 μg/mL or 5 μg/mL was added to each well. This was subjected to a speed of 600 rpm or so for one hour at room temperature to bind the antibody to the immobilized antigen. […] 100 μL of a secondary antibody solution produced by 1000-fold dilution with TBS containing 0.1% Tween20 was added to each well. For the secondary antibody, ANTIBODY ALKALINE PHOSPHATASE CONJUGATE HUMAN IMMUNOGLOBULIN ABSORBED Goat Anti-Human Kappa Alkaline Phosphate from BIOSOURCE was used in the case of antibodies carrying a Kappa chain, and Human Lambda Light Chain Antibody; Goat anti-Human Lambda Light Chain Antibody Alkaline Phosphatase Conjugated from BETHYL LABORATORIES INC. was used in the case of antibodies carrying a Lambda chain. […] Color development was performed using the BluePhos Microwell kit from KPL. After the chromogenic reaction was stopped using the AP stop solution from KPL, the absorbance was measured at 620 nm on an absorptiometer.

CRD1 [2] = target: T1, CRD1; experiment: as above
T1 construct: also called fragmented human CD137-Fc fusion protein CRD1
Procedure: as §1

CRD1-2 [3] = target: T2, CRD1-2; experiment: as above
T2 construct: also called fragmented human CD137-Fc fusion protein CRD1-2
Procedure: as §1

CRD1 [4] = target: T1, CRD1; experiment: ELISA, coated CD137-Fc protein 2 µg/mL, antibody 10 or 5 µg/mL, absorbance 620 nm; Non (uncoated well) 0.166
Procedure: as §1

CRD1-3 [5] = target: T3, CRD1-3; experiment: as above
T3 construct: also called fragmented human CD137-Fc fusion protein CRD1-3
Procedure: as §1

CRD1-2 [6] = target: T2, CRD1-2; experiment: as above
Procedure: as §1

CRD2-4 [7] = target: T4, CRD2-4; experiment: as above
T4 construct: also called fragmented human CD137-Fc fusion protein CRD2-4
Procedure: as §1

CRD2-3 [8] = target: T5, CRD2-3; experiment: as above
T5 construct: also called fragmented human CD137-Fc fusion protein CRD2-3
Procedure: as §1

CRD3-4 [9] = target: T6, CRD3-4; experiment: as above
T6 construct: also called fragmented human CD137-Fc fusion protein CRD3-4
Procedure: as §1

[10] = target: full-length human CD137-Fc fusion protein (human); experiment: as above
Procedure: as §1

CRD1-3 [11] = target: T3, CRD1-3; experiment: ELISA, coated CD137-Fc protein 2 µg/mL, antibody 10 or 5 µg/mL; absorbance 620 nm divided by that of the uncoated well
Procedure: as §1

CRD2-4 [12] = target: T4, CRD2-4; experiment: as above
Procedure: as §1

CRD2-3 [13] = target: T5, CRD2-3; experiment: as above
Procedure: as §1

CRD3-4 [14] = target: T6, CRD3-4; experiment: as above
Procedure: as §1

CRD1 [15] = target: T1, CRD1; experiment: ELISA, coated CD137-Fc protein 2 µg/mL, antibody 10 or 5 µg/mL, absorbance 620 nm; Non (uncoated well) 0.1705
Procedure: as §1

CRD1-3 [16] = target: T3, CRD1-3; experiment: as above
Procedure: as §1

CRD1-2 [17] = target: T2, CRD1-2; experiment: as above
Procedure: as §1

CRD2-4 [18] = target: T4, CRD2-4; experiment: as above
Procedure: as §1

CRD2-3 [19] = target: T5, CRD2-3; experiment: as above
Procedure: as §1

CRD3-4 [20] = target: T6, CRD3-4; experiment: as above
Procedure: as §1

[21] = target: full-length human CD137-Fc fusion protein (human); experiment: as above
Procedure: as §1

[22] = target: T7, mouse Fcγ receptor III extracellular domain with C-terminal His tag (mouse, UniProt P08508 31-215); experiment: SPR (Biacore) kinetics, antibody captured on Protein L, mFcγR as analyte, 1:1 Langmuir model
T7 construct: extracellular domain; also called mFcγRIII; not shown: His tag at the C terminus
T7 sequence (looked up): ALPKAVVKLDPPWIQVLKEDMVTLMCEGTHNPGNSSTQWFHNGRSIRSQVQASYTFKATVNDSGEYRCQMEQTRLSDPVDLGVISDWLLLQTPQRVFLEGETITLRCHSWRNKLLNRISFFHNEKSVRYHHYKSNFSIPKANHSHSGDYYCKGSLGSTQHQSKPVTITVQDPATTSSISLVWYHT

T2 sequence (chain, as listed by the source limits assumed): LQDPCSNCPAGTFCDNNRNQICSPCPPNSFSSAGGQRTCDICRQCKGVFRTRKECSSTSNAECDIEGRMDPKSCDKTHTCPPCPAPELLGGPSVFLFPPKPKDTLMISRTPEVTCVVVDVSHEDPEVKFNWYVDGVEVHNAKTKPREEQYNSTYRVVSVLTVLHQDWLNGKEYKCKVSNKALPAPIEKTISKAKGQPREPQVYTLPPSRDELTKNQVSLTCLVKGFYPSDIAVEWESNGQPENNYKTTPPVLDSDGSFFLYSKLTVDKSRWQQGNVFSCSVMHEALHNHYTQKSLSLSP
T4 sequence (chain, as listed by the source limits assumed): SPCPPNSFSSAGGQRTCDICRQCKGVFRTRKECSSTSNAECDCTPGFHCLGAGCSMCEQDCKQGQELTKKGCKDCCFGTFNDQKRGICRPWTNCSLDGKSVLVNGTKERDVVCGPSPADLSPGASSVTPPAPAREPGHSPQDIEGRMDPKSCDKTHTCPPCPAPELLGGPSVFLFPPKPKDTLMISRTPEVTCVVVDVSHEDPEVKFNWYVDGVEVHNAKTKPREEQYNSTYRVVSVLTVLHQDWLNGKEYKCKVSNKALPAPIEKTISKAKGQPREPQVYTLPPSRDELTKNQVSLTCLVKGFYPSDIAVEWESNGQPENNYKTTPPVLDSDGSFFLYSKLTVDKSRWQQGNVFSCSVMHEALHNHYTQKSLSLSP
T3 sequence (chain, as listed by the source limits assumed): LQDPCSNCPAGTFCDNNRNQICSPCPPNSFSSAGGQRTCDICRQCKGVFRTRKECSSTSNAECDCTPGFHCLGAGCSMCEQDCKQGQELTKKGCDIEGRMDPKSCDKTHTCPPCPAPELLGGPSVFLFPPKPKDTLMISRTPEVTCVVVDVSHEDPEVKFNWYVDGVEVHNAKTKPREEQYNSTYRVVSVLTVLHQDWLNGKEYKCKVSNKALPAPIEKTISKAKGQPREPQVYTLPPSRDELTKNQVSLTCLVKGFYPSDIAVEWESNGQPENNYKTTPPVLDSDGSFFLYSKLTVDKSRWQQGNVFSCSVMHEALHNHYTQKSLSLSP
Sequence of full-length human CD137-Fc fusion protein (human) (chain, as listed by the source limits assumed): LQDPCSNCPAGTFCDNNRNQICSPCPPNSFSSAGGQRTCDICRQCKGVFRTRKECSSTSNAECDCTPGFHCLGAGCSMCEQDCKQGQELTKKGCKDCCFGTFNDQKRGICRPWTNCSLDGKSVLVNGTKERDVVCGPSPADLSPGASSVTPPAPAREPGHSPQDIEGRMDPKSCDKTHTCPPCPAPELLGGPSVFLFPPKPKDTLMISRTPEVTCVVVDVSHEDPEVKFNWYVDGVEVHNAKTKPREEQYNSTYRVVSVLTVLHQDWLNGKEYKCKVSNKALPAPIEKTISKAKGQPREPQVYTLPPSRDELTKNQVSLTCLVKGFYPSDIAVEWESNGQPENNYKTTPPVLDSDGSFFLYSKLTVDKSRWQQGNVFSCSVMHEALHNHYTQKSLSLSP
T1 sequence (chain, as listed by the source limits assumed): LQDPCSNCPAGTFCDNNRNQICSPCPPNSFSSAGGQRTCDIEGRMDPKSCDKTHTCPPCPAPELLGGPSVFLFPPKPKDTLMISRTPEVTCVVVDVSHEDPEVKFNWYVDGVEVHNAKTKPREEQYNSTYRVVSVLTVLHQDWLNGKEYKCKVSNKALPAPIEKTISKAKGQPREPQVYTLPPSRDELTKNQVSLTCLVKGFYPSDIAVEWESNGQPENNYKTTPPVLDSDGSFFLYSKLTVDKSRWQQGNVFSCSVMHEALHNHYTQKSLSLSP
T5 sequence (chain, as listed by the source limits assumed): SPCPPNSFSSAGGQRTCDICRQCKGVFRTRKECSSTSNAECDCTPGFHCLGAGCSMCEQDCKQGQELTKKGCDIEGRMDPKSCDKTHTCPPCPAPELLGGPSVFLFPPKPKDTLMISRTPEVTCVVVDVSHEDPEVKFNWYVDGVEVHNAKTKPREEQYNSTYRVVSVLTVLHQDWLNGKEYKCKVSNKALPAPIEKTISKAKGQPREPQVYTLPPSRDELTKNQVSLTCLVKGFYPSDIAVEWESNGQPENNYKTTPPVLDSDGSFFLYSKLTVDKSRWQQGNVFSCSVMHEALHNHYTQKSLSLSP
T6 sequence (chain, as listed by the source limits assumed): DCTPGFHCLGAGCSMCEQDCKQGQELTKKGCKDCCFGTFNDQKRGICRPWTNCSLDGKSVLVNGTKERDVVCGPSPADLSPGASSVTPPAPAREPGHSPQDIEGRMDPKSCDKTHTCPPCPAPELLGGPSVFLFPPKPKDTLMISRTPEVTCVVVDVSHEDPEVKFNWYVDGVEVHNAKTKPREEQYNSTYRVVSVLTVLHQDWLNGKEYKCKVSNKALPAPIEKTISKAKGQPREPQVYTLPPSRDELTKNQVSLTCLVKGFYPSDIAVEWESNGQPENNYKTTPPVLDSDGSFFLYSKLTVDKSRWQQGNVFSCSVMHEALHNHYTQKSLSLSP
Sequence of mouse CD137 on T cells (P20334 24-256): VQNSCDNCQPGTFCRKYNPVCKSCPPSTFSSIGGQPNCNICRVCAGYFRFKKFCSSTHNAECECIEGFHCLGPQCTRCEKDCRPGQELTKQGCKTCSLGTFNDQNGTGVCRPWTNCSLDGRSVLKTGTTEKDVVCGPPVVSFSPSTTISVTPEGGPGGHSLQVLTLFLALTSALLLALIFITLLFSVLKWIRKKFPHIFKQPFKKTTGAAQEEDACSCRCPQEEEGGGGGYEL

B1: 1D8VH-MB492/1D8VL-mk0 (antibody, mouse IgG1, kappa, V domains shown)
VH: QVQLKEAGPGLVQPTQTLSLTCTVSGFSLTSDGVHWIRQPPGKGLEWMGIIYYDGGTDYNSAIKSRLSISRDTSKSQVFLKINSLQTDDTAMYYCARIHFDYWGQGVMVTVSS
VL: DIVLTQSPTTIAASPGEKVTITCRASSSVSYMYWYQQKSGASPKLWIYDTSKLASGVPNRFSGSGSGTSYSLAINTMETEDAATYYCQQWSSTPLTFGSGTKLEIKR
B1 was tested. Which “specific activity, mouse IFN-γ in the supernatant of spleen cells (ELISA)” value (mouse CD137 on T cells) did it give?
Its value is about 8 fold.

B2: R12 (antibody, V domains shown)
VH: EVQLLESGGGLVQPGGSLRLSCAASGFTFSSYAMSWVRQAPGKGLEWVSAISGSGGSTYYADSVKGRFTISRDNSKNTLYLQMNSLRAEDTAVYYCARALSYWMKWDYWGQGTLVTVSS
VL: DIQMTQSPSSLSASVGDRVTITCRASQSISSYLNWYQQKPGKAPKLLIYAASSLQSGVPSRFSGSGSGTDFTLTISSLQPEDFATYYCQQFNGFPLTFGGGTKVEIK
notes: Synthetic library clone; Fab on phage in the phage ELISA
For B2, which “Ratio with respect to Non-Coating” value [1] is on record?
The value was 1.1.

B3: R13 (antibody, V domains shown)
VH: QVQLVESGGGLVQPGGSLRLSCAASGFTFSYYDIQWVRQAPGKGLEWVSSISPSGQSTYYRREVKGRFTISRDNSKNTLYLQMNSLRAEDTAVYYCARRTGREYGGGWYFDYWGQGTLVTVSS
VL: B2 VL with N92S, G93R
notes: as for B2
B3 was tested. Which “Ratio with respect to Non-Coating” value [1] did it give?
Its value is 0.4.

B4: R19 (antibody, V domains shown)
VH: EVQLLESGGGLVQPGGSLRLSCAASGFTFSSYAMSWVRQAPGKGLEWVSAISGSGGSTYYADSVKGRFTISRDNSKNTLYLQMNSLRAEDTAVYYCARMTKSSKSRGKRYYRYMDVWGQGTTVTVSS
VL: B2 VL with Q89L, F91V, N92Y, G93S, F94S
notes: as for B2
For B4, which “Ratio with respect to Non-Coating” value [1] is on record?
Its value is 0.9.

B5: R8 (antibody, V domains shown)
VH: QVQLQESGPGLVKPSETLSLTCAVSGYSISSGYYWGWIRQPPGKGLEWIGSIYHSGSTYYNPSLKSRVTISVDTSKNQFSLKLSSVTAADTAVYYCARQHSFTRYYGYYYFDYWGQGTTVTVSS
VL: B2 VL with Q89L, F91S, N92D, G93S, F94I
notes: as for B2
For B5, which “Ratio with respect to Non-Coating” value (CRD1 [2]) is on record?
The value was 0.7.

What about the “Ratio with respect to Non-Coating” value (CRD1-2 [3]) of the same binder?
Its value is 0.5.

B6: R11 (antibody, V domains shown)
VH: QVQLLESGGGLVQPGGSLRLSCAASGFTFSSYAMSWVRQAPGKGLEWVSAISGSGGSTYYADSVKGRFTISRDNSKNTLYLQMNSLRAEDTAVYYCARDKWYYYPALDYWGQGTLVTVSS
VL: B2 VL with N92S, G93R
notes: as for B2
B6 was tested. Which “Ratio with respect to Non-Coating” value [1] did it give?
The value was 1.

B7: R15 (antibody, V domains shown)
VH: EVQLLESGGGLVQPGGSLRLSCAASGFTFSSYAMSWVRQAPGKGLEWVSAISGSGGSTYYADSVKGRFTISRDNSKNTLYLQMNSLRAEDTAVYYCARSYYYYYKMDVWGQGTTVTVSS
VL: B2 VL with N92V, G93R, F94H, L96P
notes: as for B2
Which “Ratio with respect to Non-Coating” value [1] does the source give for B7 here?
Its value is 0.6.

B8: R17 (antibody, V domains shown)
VH: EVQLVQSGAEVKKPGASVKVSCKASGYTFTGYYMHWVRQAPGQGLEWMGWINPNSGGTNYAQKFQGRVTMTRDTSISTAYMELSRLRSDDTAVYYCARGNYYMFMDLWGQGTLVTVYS
VL: B2 VL with Q89L, N92T, G93S
notes: as for B2
What does the source list for B8?
ELISA color development level (CRD1 [4]): 0.197; ELISA color development level (CRD1-3 [5]): 2.05; ELISA color development level (CRD1-2 [6]): 0.169; ELISA color development level (CRD2-4 [7]): 1.92; ELISA color development level (CRD2-3 [8]): 2.44; ELISA color development level (CRD3-4 [9]): 2.47; ELISA color development level [10]: 1.34; Ratio with respect to Non-Coating (CRD1 [2]): 1.2; Ratio with respect to Non-Coating (CRD1-3 [11]): 12.4; Ratio with respect to Non-Coating (CRD1-2 [3]): 1; Ratio with respect to Non-Coating (CRD2-4 [12]): 11.6; Ratio with respect to Non-Coating (CRD2-3 [13]): 14.7; Ratio with respect to Non-Coating (CRD3-4 [14]): 14.9; Ratio with respect to Non-Coating [1]: 8.1

B9: R14 (antibody, V domains shown)
VH: B6 VH
VL: B2 VL with Q89L, F91V, N92Y, G93R, F94S
notes: as for B2
With B9 as the binder, how does the “Ratio with respect to Non-Coating” value [1] read?
Its value is 0.9.

B10: R16 (antibody, V domains shown)
VH: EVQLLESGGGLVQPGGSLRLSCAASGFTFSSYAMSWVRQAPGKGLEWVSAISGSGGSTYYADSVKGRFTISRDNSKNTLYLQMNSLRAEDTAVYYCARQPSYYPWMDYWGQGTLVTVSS
VL: B2 VL with G93N, F94Y
notes: as for B2
How did the “ELISA color development level” value (CRD1 [15]) turn out when B10 was run?
Its value is 0.286.

And the “ELISA color development level” value (CRD1-3 [16])?
Its value is 2.24.

And the “ELISA color development level” value (CRD1-2 [17])?
The value was 0.269.

And the “ELISA color development level” value (CRD2-4 [18])?
Its value is 2.17.

What about the “ELISA color development level” value (CRD2-3 [19]) of the same binder?
The value was 2.54.

And the “ELISA color development level” value (CRD3-4 [20])?
The value was 2.63.

And the “ELISA color development level” value [21]?
Its value is 1.93.

And the “Ratio with respect to Non-Coating” value (CRD1 [2])?
The value was 1.7.

And the “Ratio with respect to Non-Coating” value (CRD1-3 [11])?
Its value is 13.1.

And the “Ratio with respect to Non-Coating” value (CRD1-2 [3])?
The value was 1.6.

What about the “Ratio with respect to Non-Coating” value (CRD2-4 [12]) of the same binder?
Its value is 12.7.

And the “Ratio with respect to Non-Coating” value (CRD2-3 [13])?
Its value is 14.9.

What about the “Ratio with respect to Non-Coating” value (CRD3-4 [14]) of the same binder?
The value was 15.4.

And the “Ratio with respect to Non-Coating” value [1]?
The value was 11.3.

B11: H237-mIgG1/MRAL-k0 (antibody)
heavy: QVQLQESGPGLVKPSETLSLTCAVSGHSISHDHAWSWVRQPPGEGLEWIGFISYSGITNYNPSLQGRVTISRDNSKNTLYLQMNSLRAEDTAVYYCARSLARTTAMDYWGEGTLVTVSSAKTTPPSVYPLAPGSAAQTNSMVTLGCLVKGYFPEPVTVTWNSGSLSSGVHTFPAVLQSDLYTLSSSVTVPSSTWPSETVTCNVAHPASSTKVDKKIVPRDCGCKPCICTVPEVSSVFIFPPKPKDVLTITLTPKVTCVVVDISKDDPEVQFSWFVDDVEVHTAQTQPREEQFNSTFRSVSELPIMHQDWLNGKEFKCRVNSAAFPAPIEKTISKTKGRPKAPQVYTIPPPKEQMAKDKVSLTCMITDFFPEDITVEWQWNGQPAENYKNTQPIMDTDGSYFVYSKLNVQKSNWEAGNTFTCSVLHEGLHNHHTEKSLSHSPGK
light: not shown
notes: Anti-human IL-6 receptor variable region H237 with mouse IgG1 constant region; copies: 2 + 2
How did the Kd [22] turn out when B11 was run?
Its Kd is 282 nM.
